Results published in article PMC8034659.

What was measured:
Assay in all cases: SPR
TrfA R236E = biological target: T1, TrfA R236E (plasmid RK2, UniProt P07676 98-382, R236E;G254D;S267L)
T1 sequence: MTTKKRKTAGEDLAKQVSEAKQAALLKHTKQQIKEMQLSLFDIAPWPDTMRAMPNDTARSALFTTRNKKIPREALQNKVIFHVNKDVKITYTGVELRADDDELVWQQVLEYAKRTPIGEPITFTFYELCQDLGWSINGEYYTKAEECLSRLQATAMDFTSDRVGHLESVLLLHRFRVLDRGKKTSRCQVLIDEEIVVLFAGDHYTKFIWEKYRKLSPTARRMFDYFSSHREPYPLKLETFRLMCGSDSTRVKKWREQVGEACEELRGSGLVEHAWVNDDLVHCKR

TrfA R347E = biological target: T2, TrfA R347E (plasmid RK2, UniProt P07676 98-382, G254D;S267L;R347E)
T2 sequence: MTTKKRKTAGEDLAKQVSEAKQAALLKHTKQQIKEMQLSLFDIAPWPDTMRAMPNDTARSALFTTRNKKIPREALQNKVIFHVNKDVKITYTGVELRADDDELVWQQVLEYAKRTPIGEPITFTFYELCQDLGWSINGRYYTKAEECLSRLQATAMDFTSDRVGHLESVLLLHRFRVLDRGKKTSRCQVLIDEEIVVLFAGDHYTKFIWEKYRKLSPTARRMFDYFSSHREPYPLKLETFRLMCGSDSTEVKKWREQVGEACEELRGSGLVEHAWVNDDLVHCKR

TrfA K165E = biological target: T3, TrfA K165E (plasmid RK2, UniProt P07676 98-382, K165E;G254D;S267L)
T3 sequence: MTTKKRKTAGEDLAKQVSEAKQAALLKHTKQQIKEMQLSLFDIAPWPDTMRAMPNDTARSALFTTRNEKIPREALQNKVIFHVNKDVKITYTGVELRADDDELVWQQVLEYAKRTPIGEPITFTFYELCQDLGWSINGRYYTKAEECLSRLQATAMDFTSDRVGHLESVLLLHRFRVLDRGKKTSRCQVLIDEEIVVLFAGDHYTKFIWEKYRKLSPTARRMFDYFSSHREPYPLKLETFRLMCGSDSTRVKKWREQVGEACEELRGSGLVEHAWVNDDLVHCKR

TrfA N234E = biological target: T4, TrfA N234E (plasmid RK2, UniProt P07676 98-382, N234E;G254D;S267L)
T4 sequence: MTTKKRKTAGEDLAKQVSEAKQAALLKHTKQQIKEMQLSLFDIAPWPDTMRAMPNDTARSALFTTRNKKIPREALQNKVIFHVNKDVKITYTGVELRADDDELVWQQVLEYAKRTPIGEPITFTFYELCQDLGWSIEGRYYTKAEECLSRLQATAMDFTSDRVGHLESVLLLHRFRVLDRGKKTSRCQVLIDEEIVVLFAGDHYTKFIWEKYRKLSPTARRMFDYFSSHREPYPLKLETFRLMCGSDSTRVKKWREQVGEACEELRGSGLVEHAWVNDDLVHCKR

Measured: binding result

B1: five RK2 iterons (ItT/ItB) (dsDNA)
DNA 1: CCTGCGGTATTGACACTTGAGGGGCGCGACTACTGACAGATGAGGGGCGCGATCCTTGACACTTGAGGGGCAGAGTGATGACAGATGAGGGGCGCACCTATTGACATTTGAGGGGCTGTCCACAGGCAG
DNA 2: CTGCCTGTGGACAGCCCCTCAAATGTCAATAGGTGCGCCCCTCATCTGTCATCACTCTGCCCCTCAAGTGTCAAGGATCGCGCCCCTCATCTGTCAGTAGTCGCGCCCCTCAAGTGTCAATACCGCAGG
no binding: all assays above
